Test results: patent CN105461808A (CHANGCHUN GENESCIENCE PHARMACEUTICALS CO LTD, dated 2016)

B1: H017-6F11.3.2 (antibody, mouse IgG2b, V domains shown)
VH: EVQLQQSGAELVKPGASVKLSCTASGFNIKDTYIHWMRQRPEQGLEWIGRIDPANDNTKYDPKFQGKATVTADTSSNTAYLQLSSLTSEDTAVYYCARGLRLRYFDVWGAGTTVTVSS
VL: DIQMTQTPSSLSASLGGKVTITCKASQDIHKYIAWYQHKPGKGPRLLIHYTSTLQPGIPSRFSGSGSGRDFSFSISNLEPEDFETYYCLQYENLLPTFGGGTKLEIK
notes: Mouse hybridoma antibody purified from supernatant
B2: H018-17B5.5.1 (antibody, mouse IgG1, V domains shown)
VH: QVQLQQSGAELMKPGASVKISCKATGYKFSSYWIEWVKQRPGHGLEWIGEILPGSGNPNYDEKFKGKATFTADTSSNTAYMQLSSLTSEDSAVYYCARERWMDSWGQGTSVTVSS
VL: DIQMTQTASSLSASLGDRVTISCSASQGIFNYLNWYQQKPDGTVTVLIYYTSRLHSGVPSRFSGSGSGTDYSLTISNLEPEDIATYYCQQYSKLPYTFGGGTKLEIKR
notes: as for B1
B3: H017-9C10.2.8 (antibody, mouse IgG1, V domains shown)
VH: QVQLKQSGFGLVLPSQSLSITCTVSGFSLTSYGVHWVRQSPGKGLEWLGLIWSGGGTDYNAAFISRLSISKDNSKSQVFFKINSLQANDTAIYYCARQLGLRAMDYWGQGTSVTVSS
VL: DILLTQSPAILSVSPGERVSFSCRASQSIGTTIHWYQQRTNGSPRLLIKYASESVSGIPSRFSGSGSGTDFTLSINSVESEDIADYYCQQSNSWPLTFGAGTKLEIK
notes: as for B1

target: T1, PDL1-hFc (human, UniProt Q9NZQ7 19-238, limits assumed); assay: ELISA, PDL1-hFc coated 1 ug/ml, antibody titrated, HRP secondary
T1 construct: Coating antigen of the ELISA on human PD-L1 and of the T cell proliferation assay; also called humanPDL-1; 人PDL-1; not shown: human Fc (hFc)
T1 sequence (Q9NZQ7 19-238 limits assumed): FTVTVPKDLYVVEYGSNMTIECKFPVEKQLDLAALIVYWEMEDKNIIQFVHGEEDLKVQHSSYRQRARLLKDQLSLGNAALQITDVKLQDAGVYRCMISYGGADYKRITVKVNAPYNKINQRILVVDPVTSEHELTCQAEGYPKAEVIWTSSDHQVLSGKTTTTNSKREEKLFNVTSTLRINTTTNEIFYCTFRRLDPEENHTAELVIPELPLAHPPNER

**Q.** B1 was tested. Which EC50 did it give?
**A.** Its EC50 is 0.049 nM.

**Q.** With B2 as the binder, how does the EC50 read?
**A.** The EC50 was 0.133 nM.

**Q.** For B3, which EC50 is on record?
**A.** Its EC50 is 0.079 nM.

target: T2, MonkeyPDL1-his (monkey); assay: ELISA, MonkeyPDL1-his coated 1 ug/ml, antibody titrated, HRP secondary
T2 construct: Coating antigen of the ELISA on monkey PD-L1; also called 猴PDL-1

**Q.** With B1 as the binder, how does the EC50 read?
**A.** The EC50 was 0.123 nM.

**Q.** B2 was tested. Which EC50 did it give?
**A.** Its EC50 is 0.7 nM.

**Q.** For B3, which EC50 is on record?
**A.** The EC50 was 0.191 nM.
